From patent US6673915 (GENERAL HOSPITAL, dated 2004)

Target: T1, CC CKR3 stably expressed on HEK-293 cells (Example 10A) (human, UniProt P51677 1-355)
T1 sequence (looked up): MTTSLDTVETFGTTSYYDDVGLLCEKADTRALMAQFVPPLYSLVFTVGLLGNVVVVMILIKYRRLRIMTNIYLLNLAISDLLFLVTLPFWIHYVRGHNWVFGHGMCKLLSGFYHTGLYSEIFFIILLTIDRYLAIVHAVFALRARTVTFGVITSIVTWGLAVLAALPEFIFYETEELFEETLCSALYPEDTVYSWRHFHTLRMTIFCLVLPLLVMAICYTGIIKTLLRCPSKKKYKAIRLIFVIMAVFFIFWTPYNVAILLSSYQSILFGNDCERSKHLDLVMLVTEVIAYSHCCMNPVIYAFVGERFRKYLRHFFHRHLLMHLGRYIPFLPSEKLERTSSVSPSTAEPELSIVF
Test: cell-based or functional assay

EC50 of calcium flux relative to eotaxin at CKR3: ~2 fold
B1: recombinant human MCP-4 with the mature N-terminal Gln (PeproTech) (ligand)
chain: not shown
